Experimental data published in patent US20250189530A1 (STCUBE, published 2025).

What was measured:
BTN1A1 Peptide 4 [1] = molecular target: T1, BTN1A1 Peptide 4 (human); assay: ELISA, stock solution
T1 construct: also called BTN1A1-pep4- WT; Pep4
T1 peptide: EVEVGDRTDWAIGVC

hBTN1A1 ICD [2] = molecular target: T2, hBTN1A1 ICD (human, UniProt Q13410 270-526); assay: ELISA, stock solution
T2 sequence: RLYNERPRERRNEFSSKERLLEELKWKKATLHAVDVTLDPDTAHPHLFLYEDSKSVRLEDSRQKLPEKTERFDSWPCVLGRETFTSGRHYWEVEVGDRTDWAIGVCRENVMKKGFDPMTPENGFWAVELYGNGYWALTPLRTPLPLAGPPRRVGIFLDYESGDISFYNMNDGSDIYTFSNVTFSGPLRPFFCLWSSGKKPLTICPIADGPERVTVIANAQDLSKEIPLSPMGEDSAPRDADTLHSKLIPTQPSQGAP

denatured hBTN1A1 ICD [3] = molecular target: T3, denatured hBTN1A1 ICD (human, UniProt Q13410 270-526); assay: ELISA, stock solution
T3 construct: Same protein as hBTN1A1 ICD, denatured before the ELISA; also called hBTN1A1 ICD denatured; Denatured ICD
T3 sequence: T2 sequence

BTN1A1 Peptide 4 [4] = molecular target: T1, BTN1A1 Peptide 4; assay: ELISA clone screen, STCube
hBTN1A1 ICD [5] = molecular target: T2, hBTN1A1 ICD; assay: ELISA clone screen, STCube
denatured hBTN1A1 ICD [6] = molecular target: T3, denatured hBTN1A1 ICD; assay: ELISA clone screen, STCube
BTN1A1 Peptide 4 [7] = molecular target: T1, BTN1A1 Peptide 4; assay: ELISA clone screen, GenScript
hBTN1A1 ICD [8] = molecular target: T2, hBTN1A1 ICD; assay: ELISA clone screen, GenScript

ELISA signal (BTN1A1 Peptide 4 [1]): 2.88
ELISA signal (hBTN1A1 ICD [2]): 2.93
ELISA signal (denatured hBTN1A1 ICD [3]): 2.87
ELISA signal (BTN1A1 Peptide 4 [4]): 0.945
ELISA signal (hBTN1A1 ICD [5]): 1.98
ELISA signal (denatured hBTN1A1 ICD [6]): 0.111
ELISA signal (BTN1A1 Peptide 4 [7]): 0.609
ELISA signal (hBTN1A1 ICD [8]): 1.6
B1: STC43H11-1 (antibody, V domains shown)
VH: QSLEESGGRLVTPGGSLTLTCTVSGIDLSSYAMGWVRQAPGEGLEWIGSIGTGGGTGYASWAKGRFTISKTSTTVDLKMTSLTASDTATYFCATSNLWGPGTLVTVSS
VL: QVLTQTASPVSAAVGGTVTINCQASQSVYNNNRCSWFQQKPGQPPKRLIYHTSTLDSGVPSRFKGSGSGTQFTLTISDVQCDDAATYYCLGNYDCSRADCAAFGGGTEVVVK
notes: From immunized New Zealand rabbits; IgG heavy chain and Kappa light chain; also called clone #43H11; Clone 43H11
